# Experimental data: patent US20220153854A1 (Ablynx, published 2022)
# T1: cyno OX40L (cynomolgus monkey, UniProt G7NVH7 51-183)
# T1 construct: also called cyOX40L; cynomolgus monkey OX40L
# T1 sequence: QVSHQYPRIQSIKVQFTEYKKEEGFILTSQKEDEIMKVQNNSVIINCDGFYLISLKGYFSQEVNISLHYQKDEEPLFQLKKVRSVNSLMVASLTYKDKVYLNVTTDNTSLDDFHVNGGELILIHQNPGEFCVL
# T2: membrane bound cyno OX40L on CHO-KI cells (cynomolgus monkey, UniProt G7NVH7 1-183)
# T2 construct: whole, on cells; also called CHO-KI cells expressing cyno OX40L
# T2 sequence: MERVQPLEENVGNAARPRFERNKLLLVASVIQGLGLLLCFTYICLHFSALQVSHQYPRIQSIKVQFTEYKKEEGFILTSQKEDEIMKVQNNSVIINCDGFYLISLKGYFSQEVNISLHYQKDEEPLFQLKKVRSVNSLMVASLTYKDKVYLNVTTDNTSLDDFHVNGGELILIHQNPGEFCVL
# T3: human OX40L (human, UniProt P23510 51-183)
# T3 sequence (looked up): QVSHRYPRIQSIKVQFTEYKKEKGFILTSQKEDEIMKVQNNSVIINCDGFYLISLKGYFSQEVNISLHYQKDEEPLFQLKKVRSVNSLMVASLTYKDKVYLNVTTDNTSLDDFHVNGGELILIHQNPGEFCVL
# What was measured:
# human serum albumin = target: T4, human serum albumin (human, UniProt P02768 25-609); assay: Gyrolab in-solution affinity, 2 h incubation; 95% CI 6.7-8.9 nM
# T4 construct: also called HSA; HAS
# T4 sequence (P02768 25-609 limits assumed): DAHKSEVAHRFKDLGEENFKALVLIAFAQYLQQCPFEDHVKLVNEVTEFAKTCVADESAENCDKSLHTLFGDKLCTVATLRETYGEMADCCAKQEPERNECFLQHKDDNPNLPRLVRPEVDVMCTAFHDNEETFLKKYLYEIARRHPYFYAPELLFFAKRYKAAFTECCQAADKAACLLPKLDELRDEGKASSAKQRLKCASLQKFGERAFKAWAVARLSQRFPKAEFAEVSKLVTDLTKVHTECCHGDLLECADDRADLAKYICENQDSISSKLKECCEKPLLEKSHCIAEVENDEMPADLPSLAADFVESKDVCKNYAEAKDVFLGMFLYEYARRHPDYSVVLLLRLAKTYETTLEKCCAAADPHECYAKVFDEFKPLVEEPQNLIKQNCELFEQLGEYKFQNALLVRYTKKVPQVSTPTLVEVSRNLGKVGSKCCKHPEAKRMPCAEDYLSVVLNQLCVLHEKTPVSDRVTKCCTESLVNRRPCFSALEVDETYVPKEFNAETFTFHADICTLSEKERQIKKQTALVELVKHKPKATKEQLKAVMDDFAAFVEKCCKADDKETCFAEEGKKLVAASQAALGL
# Protocol: (§1) Under receptor-controlled measurements a serial dilution of OX40L (ranging from 1.3 μM-0.031 μM), IL-13 (ranging from 0.1 μM-0.25 fM), or serum albumin (ranging from 100 μM-3.2 μM) and a fixed amount of ISVD construct F027100187 (5 nM in case of OX40L, […] in case of IL-13 and 30 nM in case of HSA and cyno SA) were mixed to allow interaction and incubated for either 24 or 48 hours (in case of OX40L and IL-13) or 2 hours (in case of serum albumin) to reach equilibrium.
# (§2) Biotinylated human OX40L/IL-13/serum albumin was captured in the microstructures of a Gyrolab Bioaffy 1000 CD, which contains columns of beads and was used as a molecular probe to capture free F027100187 from the equilibrated solution. The mixture of OX40L/IL13/serum albumin and F027100187 (containing free OX40UIL-13/serum albumin, free F027100187 and OX40L/IL13/serum albumin—F027100187 complexes) was allowed to flow through the beads, and a small percentage of free F027100187 was captured, which is proportional to the free ISVD construct concentration. A fluorescently labeled anti-ISVD antibody, ABH0086-Alexa647, was then injected to label any captured F027100187 and after rinsing away excess of fluorescent probe, the change in fluorescence was determined. Fitting of the dilution series was done using Gyrolab Analysis software, where KD- and receptor-controlled curves were analyzed to determine the KD value.
# cyno OX40L [1] = target: T1, cyno OX40L; assay: Gyrolab in-solution affinity, 24 h incubation; 95% CI 101-156 pM
# Protocol: as §1, §2
# human IL-13 [2] = target: T5, human IL-13 (human, UniProt P35225 35-146, limits assumed); assay: Gyrolab in-solution affinity, 48 h incubation; 95% CI 3.8-11.5 pM
# T5 construct: Recombinant soluble protein; also called hIL-13; soluble hIL-13
# T5 sequence (P35225 35-146 limits assumed): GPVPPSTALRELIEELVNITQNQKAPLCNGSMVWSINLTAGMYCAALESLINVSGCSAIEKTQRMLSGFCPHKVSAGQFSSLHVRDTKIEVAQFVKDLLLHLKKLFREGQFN
# Protocol: as §1, §2
# rhesus IL-13 = target: T6, rhesus IL-13 (rhesus monkey, UniProt Q864V6 19-132, limits assumed); assay: Gyrolab in-solution affinity, 48 h incubation; 95% CI 6.3-49.5 pM
# T6 construct: also called rhesus monkey IL-13
# T6 sequence (Q864V6 19-132 limits assumed): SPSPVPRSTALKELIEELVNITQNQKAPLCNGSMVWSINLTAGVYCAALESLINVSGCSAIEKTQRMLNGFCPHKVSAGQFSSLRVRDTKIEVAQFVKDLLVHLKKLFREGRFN
# Protocol: as §1, §2
# human IL-13 [3] = target: T5, human IL-13; assay: cell-based or functional assay
# [4] = target: T2, membrane bound cyno OX40L on CHO-KI …; assay: flow cytometry on fixed CHO-KI cells expressing cyno OX40L, 48 h incubation
# Protocol: Briefly, cells were fixed with 4% paraformaldehyde and 0.1% Glutaraldehyde in PBS, seeded at a density of 1×10⁴ cells/well and incubated with a dilution series of ISVD F027100187 or reference compound anti-hOX40L mAb, named Comparator 3, starting from 100 nM […] 0.5 μM, for 48 hours at room temperature. Comparator 3 is a standard conventional monoclonal antibody directed against human OX40L, which is used as a reference throughout the Examples 1 to 12 described herein. Cells were washed 3 times and subsequently incubated with an anti-VHH mAb (ABH00119) for 30 min at 4° C., washed again, and incubated for 30 min at 4° C. with a goat anti-mouse PE or FITC labeled antibody. Samples were washed and resuspended in FACS Buffer (D-PBS with 10% FBS and 0.05% sodium azide supplemented with 5 nM TOPRO3). Cell suspensions were then analyzed on an iQuescreener. EC50 values were calculated using GraphPad Prism.
# cyno IL-13 = target: T7, cyno IL-13 (cynomolgus monkey, UniProt Q0PW92 21-132); assay: Gyrolab in-solution affinity, 48 h incubation; 95% CI 9.5-13.9 pM
# T7 construct: also called cynomolgus monkey IL-13
# T7 sequence (Q0PW92 entry or part of it): as the sequence (P35225 35-146 limits assumed) above, with G1S, R10K, M42V, S67N, H83R, L100V counted along it
# Protocol: as §1, §2
# human OX40L [5] = target: T3, human OX40L; assay: cell-based or functional assay
# human OX40L [6] = target: T3, human OX40L; assay: Gyrolab in-solution affinity, 48 h incubation; 95% CI 98-120 pM
# Protocol: as §1, §2
# cyno OX40L [7] = target: T1, cyno OX40L; assay: Gyrolab in-solution affinity, 24 h incubation; 95% CI 174-218 pM
# Protocol: as §1, §2
binder,measurement,setting,value
"ISVD construct F027100187 (other, Tetravalent, trispecific single-chain construct of four VHH (ISVD) domains: one against OX40L, two against IL-13, one against serum albumin; also called F0271000187; F27100187) DVQLVESGGGVVQPGGSLRLSCAASRSIGRYDRMGWYRHRPGEPRELVATITGGSSINYGDSVKGRFTISIDNSKNTVYLQMNSLRPEDTALYYCNFNKYQISRDTWGQGTLVTVSSGGGGSGGGSEVQLVESGGGVVQPGGSLRLSCAASGRTFSSYRMGWFRQAPGKEREFVAALSGDGYSTYTANSVKGRFTISRDNSKNTVYLQMNSLRPEDTALYYCAAKLQYVSGWSYDYPYWGQGTLVTVSSGGGGSGGGSEVQLVESGGGVVQPGGSLRLSCAASGFTFRSFGMSWVRQAPGKGPEWVSSISGSGSDTLYADSVKGRFTISRDNSKNTLYLQMNSLRPEDTALYYCTIGGSLSRSSQGTLVTVSSGGGGSGGGSEVQLVESGGGVVQPGGSLRLSCAASGFTFNNYAMKWVRQAPGKGLEWVSSITTGGGSTDYADSVKGRFTISRDNSKNTLYLQMNSLRPEDTALYYCANVPFGYYSEHFSGLSFDYRGQGTLVTVSSA",Kd,human serum albumin,7.8 nM
same,Kd,cyno OX40L [1],0.128 nM
same,Kd,human IL-13 [2],0.0076 nM
same,Kd,rhesus IL-13,0.0141 nM
same,"CCL26 IC50 (pM), triculture assay",human IL-13 [3],40.7 pM
same,EC50,[4],0.0363 nM
same,Kd,cyno IL-13,0.0117 nM
same,"IL-5 IC50 (nM), triculture assay",human OX40L [5],1 nM
same,Kd,human OX40L [6],0.109 nM
same,Kd,cyno OX40L [7],0.196 nM
